Laboratory results as given in patent publication US10471162B2, “Collagen targeted imaging probes” (priority 2014, dated 2019).

Columns and labels:
[1] = tested on: pulmonary fibrosis, C57/BL6 mice (bleomycin or sham); details: mouse, in vivo
Experimental: Pulmonary fibrosis was induced in 7-8-week-old male C57/BL6 mice by transtracheal administration of bleomycin (BM; 2.5 U/kg) in 50 μL of PBS under direct vision using a small cervical incision. Sham animals received only PBS. Animals were placed in a small-animal PET/SPECT/CT scanner (Triumph; TriFoil Imaging), equipped with inhalation anesthesia and heating pad. Each animal was anesthetized with isoflurane (4% for induction, 1-1.5% for maintenance in medical air). After placement of an in-dwelling catheter in the femoral vein for probe administration, mice were positioned in the PET-CT and the probe was given as a bolus as the PET acquisition began. Mice were imaged continuously by PET for 120 minutes. […] Instrument calibration was performed with phantoms containing small known amounts of radioactivity. […] Reconstructed PET/CT data were quantitatively evaluated using AMIDE software package (Loening and Gambhir, 2003). […] The radioactivity concentration within organs was obtained from mean pixel values within the VOI volume and converted to counts per milliliter per minute and then divided by the injected dose (ID) to obtain an imaging VOI-derived percentage of the injected radioactive dose per cubic centimeter of tissue (% ID/cc). […] Instrument calibration was performed with phantoms containing small known amount of radioactivity. […]

[2] = tested on: pulmonary fibrosis, low dose bleomycin, vascular leak model; details: male, C57Bl/6, mouse, in vivo, iv
Experimental: Adult male C57Bl/6 mice were administered a single intratracheal dose of low dose bleomycin at 0.1 U/kg (low dose), in a total volume of 50 μl sterile saline. FTY720 was administered intraperitoneally to the mice at 1 mg/kg three times a week. To effect treatment in the low dose bleomycin, vascular leak model, the therapeutic murine antibody 3G9 (alpha-v-beta6 blocking antibody) and 1E6 (matched isotype control antibody) were used. Antibodies were injected into mice intraperitoneally three times week at a concentration of 1 mg/kg. All administrations of FTY720 and antibodies were initiated on day 0, ˜30 minutes before bleomycin challenge and continued throughout the duration of the experiments. Animals were placed in a small-animal PET/SPECT/CT scanner (Triumph; TriFoil Imaging), equipped with inhalation anesthesia and heating pad. […] Instrument calibration was performed with phantoms containing small known amounts of radioactivity. […] Reconstructed PET/CT data were quantitatively evaluated using AMIDE software package (Loening and Gambhir, 2003). […] The radioactivity concentration within organs was obtained from mean pixel values within the VOI volume and converted to counts per milliliter per minute and then divided by the injected dose (ID) to obtain an imaging VOI-derived percentage of the injected radioactive dose per cubic centimeter of tissue (% ID/cc). […]

`CC(C)C[C@H](NC(=O)[C@@H]1CSSC[C@H](NC(=O)[C@H](Cc2c[nH]cn2)NC(=O)[C@H](Cc2c[nH]c3ccccc23)NC(=O)[C@H](CCCCNC(=O)CNC(=O)CCC(C(=O)O)N2CCN(CC(=O)O)CCN(CC(=O)O)CC2)NC(=O)CNC(=O)CCC(C(=O)O)N2CCN(CC(=O)O)CCN(CC(=O)O)CC2)C(=O)N[C@@H]([C@@H](C)O)C(=O)N[C@@H]([C@@H](C)O)C(=O)N[C@@H](CCCCNC(=O)CCC(C(=O)O)N2CCN(CC(=O)O)CCN(CC(=O)O)CC2)C(=O)N[C@@H](Cc2ccccc2)C(=O)N2CCC[C@H]2C(=O)N[C@@H](Cc2c[nH]cn2)C(=O)N[C@@H](Cc2c[nH]cn2)C(=O)N[C@@H](Cc2ccc(O)cc2)C(=O)N1)C(=O)N[C@@H](Cc1ccc(O)cc1)C(=O)N[C@@H](Cc1ccc(-c2ccccc2)cc1)C(N)=O` (single isomer, unassigned) [CBP8] was tested, and the “Mean PET activity in heart and muscle, BM-treated vs sham, in words” value [1] was “not significantly different” and the “mean lung PET activity” value [2] was 2.07 ± 0.53 % ID/cc.
